Experimental data: article doi:10.1101/2020.08.17.253781

Biological target: GST-LOV2GIV (L) (Avena sativa | not stated)
Assay: pull-down

Chain of His-Gαi3 (P08753 whole entry): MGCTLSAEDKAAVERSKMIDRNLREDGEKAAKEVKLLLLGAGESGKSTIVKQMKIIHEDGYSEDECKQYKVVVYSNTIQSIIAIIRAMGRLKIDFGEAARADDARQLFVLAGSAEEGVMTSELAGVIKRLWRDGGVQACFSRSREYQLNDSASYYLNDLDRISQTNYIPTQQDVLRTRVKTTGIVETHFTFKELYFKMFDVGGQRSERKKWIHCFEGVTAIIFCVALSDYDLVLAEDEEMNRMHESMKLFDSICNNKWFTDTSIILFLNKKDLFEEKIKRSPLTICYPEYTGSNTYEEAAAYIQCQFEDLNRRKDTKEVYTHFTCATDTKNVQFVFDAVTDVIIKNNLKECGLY

- fold binding, lit over dark conformation of LOV2GIV: 3 fold
Substance: His-Gαi3 (from UniProt P08753 1-354) (natural protein)
